# Assay results taken from article PMC11112410 (Frontiers in Immunology, 2024).
# T1: recombinant Aln g 1.0101 (alder) (alder)
# T1 construct: alder pollen allergen Aln g 1, isoallergen Aln g 1.0101; source: bought: Biomay AG (recombinant)
# T1 chain: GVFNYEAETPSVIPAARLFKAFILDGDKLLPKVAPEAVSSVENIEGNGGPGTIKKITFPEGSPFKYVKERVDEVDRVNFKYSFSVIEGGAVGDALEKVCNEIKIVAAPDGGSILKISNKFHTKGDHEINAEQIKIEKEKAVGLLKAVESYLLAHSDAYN
# T2: recombinant Bet v 1.0101 (birch) (birch)
# T2 construct: major birch pollen allergen Bet v 1, isoallergen Bet v 1.0101; also called major birch pollen allergen; source: bought: Biomay AG (recombinant)
# T2 chain: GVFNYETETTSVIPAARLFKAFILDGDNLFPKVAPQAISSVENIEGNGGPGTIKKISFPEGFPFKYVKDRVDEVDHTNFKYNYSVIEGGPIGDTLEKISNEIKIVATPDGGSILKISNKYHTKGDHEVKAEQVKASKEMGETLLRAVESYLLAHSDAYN
# T3: recombinant Phl p 5.0101 (timothy grass) (timothy grass)
# T3 construct: timothy grass pollen allergen Phl p 5, isoallergen Phl p 5.0101; also called major grass pollen allergen; source: bought: Biomay AG (recombinant)
# T3 chain: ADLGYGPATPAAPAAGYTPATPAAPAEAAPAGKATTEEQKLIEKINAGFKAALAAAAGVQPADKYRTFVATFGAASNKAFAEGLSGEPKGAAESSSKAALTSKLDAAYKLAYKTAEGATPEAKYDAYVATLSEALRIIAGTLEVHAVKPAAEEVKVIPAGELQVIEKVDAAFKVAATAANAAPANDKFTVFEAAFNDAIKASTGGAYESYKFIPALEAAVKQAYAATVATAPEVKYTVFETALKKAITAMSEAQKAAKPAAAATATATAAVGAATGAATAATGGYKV
# T4: natural Cor a 1 in hazel pollen extract (hazel (endogenous in hazel pollen))
# T4 construct: natural Cor a 1 of hazel pollen extract; Unpurified extract; band at around 17 kDa on blots; source: endogenous, hazel pollen (Allergon) extract
# T4 chain: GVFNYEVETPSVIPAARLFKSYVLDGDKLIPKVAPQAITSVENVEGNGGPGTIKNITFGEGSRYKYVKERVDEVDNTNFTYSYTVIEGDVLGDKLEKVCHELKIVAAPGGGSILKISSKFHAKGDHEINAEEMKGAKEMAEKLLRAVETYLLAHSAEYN
# B1: Bet v 1-specific nanobody monomer Nb32 (VHH)
# VHH: QVQLVESGGGSVQSGGSLRLSCAASGYTYSSYCMAWFRQAPGKKREGVAAIDTDGSTDYADSVKGRFAISQDNAKNTLYLQMNSLKPEDTAMYYCAAYGGSCRRGTGSGYWGQGTQVTVSS
# notes: as the chain of m1 (Nb32ILZ) without the ILZ domain: Nb32 VHH and hinge; also called Nb32 monomer; not shown: HA, C-terminal, kept; His6, C-terminal, kept
# Tests used:
# [1] = biological target: T5, recombinant Cor a 1.0103 (hazel) (Corylus avellana, isoallergen Cor a …, UniProt Q08407, strain); experiment: SPR; Biacore T200, CM5 chip, 25°C; allergens amine-coupled; nanobodies injected in HBS-EP+ (Nb32ILZ 0.172-44 nM, Nb32 0.313-40 nM), multicycle kinetics, 30 min dissociation; printed kd from the 1:1 (Langmuir) binding model for both nanobodies; conditions: both partners purified
# T5 construct: source: bought: Biomay AG (recombinant)
# [2] = biological target: T1, recombinant Aln g 1.0101 (alder); experiment: as above; conditions: both partners purified
# [3] = biological target: T2, recombinant Bet v 1.0101 (birch); experiment: as above; conditions: both partners purified
# [4] = biological target: T3, recombinant Phl p 5.0101 (timothy grass); experiment: ELISA; recombinant allergens or unrelated antigens (2 µg/ml in bicarbonate buffer) coated on the plate; nanobodies 2 µg/ml (Figure 2A) or 1 µg/ml (Figures 2B-C) in 0.1% BSA in PBST, overnight at 4°C; detected with HRP-labelled anti-HA-tag antibody; conditions: both partners purified
# [5] = biological target: T6, recombinant Car b 1.0109 (hornbeam) (Carpinus betulus, isoallergen Car b …, UniProt B6RQR6, strain); experiment: as above; conditions: both partners purified
# T6 construct: hornbeam pollen allergen Car b 1, isoallergen Car b 1.0109; source: recombinant; provided by Prof; Barbara Bohle (IPA, MUV)
# [6] = biological target: T5, recombinant Cor a 1.0103 (hazel); experiment: ELISA; IgE inhibition: recombinant allergens (1 µg/ml) coated, pre-incubated with Nb32 (10 µg/ml) or Nb32ILZ (11.5 µg/ml) overnight at 4°C, then patients' sera 1:10; bound IgE detected with AKP-labelled anti-human-IgE antibody; conditions: both partners purified
# [7] = biological target: T1, recombinant Aln g 1.0101 (alder); experiment: as above; conditions: both partners purified
# [8] = biological target: T4, natural Cor a 1 in hazel pollen extract; experiment: far-Western, overlay or dot blot; pollen extracts separated by reducing SDS-PAGE, blotted on nitrocellulose; strips incubated with Nb32 (1 µg/ml) or Nb32ILZ (1.15 µg/ml) in Buffer A at 4°C overnight; detected with HRP-labelled anti-HA-tag antibody; conditions: one partner purified
binder,measurement,setting,value
B1,koff,[1],0.00021 s⁻¹
same,koff,[2],0.0001 s⁻¹
same,koff,[3],9.9e-05 s⁻¹
same,binding result,[4],no binding
same,binding result,[5],binds
same,percent inhibition of patients' IgE binding,[6],48%
same,percent inhibition of patients' IgE binding,[7],65%
same,binding result,[8],binds
